Read-outs that look alike come from different tables or passages of the source.
Experiments:
[1] = molecular target: human methylmalonyl-CoA epimerase p.Arg143Cys variant (human) (UniProt Q96PE7); test: crystal structure
[2] = molecular target: human methylmalonyl-CoA epimerase, wild type (human) (UniProt Q96PE7); test: crystal structure
[3] = molecular target: human methylmalonyl-CoA epimerase, wild type (human) (UniProt Q96PE7)

Row | stoichiometry N [1] | stoichiometry N [2] | stoichiometry N [3] | Substance
1 | 2 | – | – | human methylmalonyl-CoA epimerase p.Arg143Cys variant (from UniProt Q96PE7 45-176) (enzyme)
2 | – | 2 | 2 | human methylmalonyl-CoA epimerase, wild type (from UniProt Q96PE7 45-176) (enzyme)

From publication doi:10.1101/484048
